Entries after “also recorded” stand apart in the source; their conditions may differ.
B1: F:1-97: recombinant N-terminal RNase 7 fragment, amino acids 1 to 97 (SEQ ID NO: 5), N-terminal His tag (protein, listed as Homo sapiens)
chain: KPKGMTSSQWFKIQHMQPSPQACNSAMKNINKHTKRCKDLNTFLHEPFSSVAATCQTPKIACKNGDKNCHQSHGPVSLTMCKLTSGKYPNCRYKEKR
modifications: N-terminal His tag
B2: RNase7: recombinant full-length human Ribonuclease 7, amino acids 1-128 (SEQ ID NO: 1), N-terminal His tag (protein, listed as Homo sapiens)
chain: KPKGMTSSQWFKIQHMQPSPQACNSAMKNINKHTKRCKDLNTFLHEPFSSVAATCQTPKIACKNGDKNCHQSHGPVSLTMCKLTSGKYPNCRYKEKRQNKSYVVACKPPQKKDSQQFHLVPVHLDRVL
modifications: N-terminal His tag

Legend:
Escherichia coli (UTI89) = test: SYTOX Green bacterial cell death / membrane permeabilization assay; type: cell-based; conditions: 3 hours, FIG. 1, compared to full-length
Protocol: (§1) Assays of the permeabilization of bacterial membrane were performed with SYTOX green nucleic acid stain (Invitrogen™). The overnight cultures of bacteria were centrifuged at 5000 rpm for 5 min, the pellets were then washed with water and resuspended in water with an OD=0.5. 90 μl of each bacteria were then incubated with 10 μl of peptides with different concentrations for 3 hours at 37° C. in a 96-well plate. 100 μl of 2 μM SYTOX Green (Invitrogen™) were then added to each well and incubated in dark for 15 min. SYTOX green penetrates cells with compromised membranes not the membranes of live cells. The increase of fluorescence was measured using […] filters for excitation and emission wavelengths, respectively. Bacteria alone and bacteria treated with 70% ethanol were used as controls and the fluorescence from each was recorded as Fmin and Fmax. The percentage of cell death at each concentration for each fragment was calculated as below: death %=(F−Fmin)/(Finax−Fmin)*100%
(§2) To confirm the accuracy of our MIC/MBC data, cell death assays using SYTOX Green (Invitrogen), which selectivity labels nucleic acids of cells with compromised membranes of dead/dying cells were performed. Overnight cultures of bacteria were centrifuged at 5000 rpm for 5 minutes. Pellets were then washed with PBS (pH 7.4) and resuspended in PBS to an OD600 of 0.5 for Escherichia coli (UTI89) and OD600 of 0.8 for Staphylococcus saprophyticus. Per manufacturerer's instructions, 90 μl of each bacteria strain were incubated with 100 μl of 2 uM SYTOX Green for 15 minutes. Ten microliters of peptides at various concentrations were added for 3 hours at 37° C. in a 96-well plate. Compromised bacterial membranes of dead/dying cells will be labeled while lives cells are not labeled as noted by Invitrogen. Fluorescence was measured using 485 and 520-nm filters for excitation and emission wavelengths, respectively. Untreated bacteria were used as a 100% live control, and fluorescence was noted as Fmin. To elicit complete killing, bacteria were treated with 70% ethanol for 1 hour. This experimental group's fluorescence was noted as Fmax. The percentage of cell death at each concentration for each fragment was calculated as (Ffragment−Fmin)/(Fmax−Fmin)×100%.

[1] = tested on: Staphylococcus saprophyticus; test: as above; type: cell-based; conditions: 3 hours, FIG. 2, compared to full-length
Protocol: as §1, §2

[2] = tested on: ATCC non-uropathogenic strains; test: RNase7 antibacterial activity, MIC on laboratory strains; type: cell-based; conditions: ATCC non-uropathogenic strains (N=3 distinct strains)
Source text: (§3) Laboratory bacterial strains from the American Type Culture Collection (ATCC, Manassas, Va.) and strains isolated from positive urine cultures were obtained from the Microbiology Laboratory at Nationwide Children's Hospital.

[3] = tested on: Human primary bladder urothelial cells and renal medullary epithelial cells; test: Cytotoxic assay; type: cell-based
Protocol: Cytotoxic assay: The urothelial cells that line the bladder and distal nephron epithelial cells are the primary areas of RNase7 protein expression in the kidney and urinary tract. Thus, the cytotoxicity of variant peptides on these epithelia is determined. Human primary bladder urothelial cells (Catalog #4320, ScienCell Research Laboratories, Carlsbad, Calif.) and renal medullary epithelial cells (Catalog # FC-0018, Lifeline Cell Technology, Frederick, Md.) are cultured according to the manufacture's instructions. Cytotoxicity is measured with the Live/Dead Viability/Cytotoxicity Kit for mammalian cells (Catalog number # L3224, Invitrogen/Molecular Probes, Eugene Oreg.) according to the manufacturer's fluorescence microplate protocol and expressed as the percentage of viable cells after treatment with serial two-fold dilutions of RNase 7 and its deletion fragments incubated for 1 hour at 37° C. The results of the cytotoxic assay are reported as the EC50 or the concentration that results in 50% cell death.

uropathogenic E. coli = test: RNase7 antibacterial activity, MIC on strains isolated from positive urine cultures; type: cell-based, Escherichia coli; conditions: uropathogenic E. coli isolated from urine cultures (N=3)
Source text: as §3

human erythocytes = type: cell-based
Protocol: Hemolytic assay: To determine the hemolytic activity of RNase 7, washed human erythocytes are incubated for 1 hour at 37° C. with a serial two-fold dilution of recombinant RNase 7 and its fragments in pyrogen free saline. After incubation, centrifugation to remove intact erythrocytes and a 10-fold dilution of supernatant, the concentration of released hemoglobin is measured in a micotitre plate reader at 405 nm. (Biochem J. Feb. 15 2008; 410(1):113-122) The peptide concentration that results in 50% hemolysis of erythrocytes will be designated the HC50.

[4] = tested on: E. Coli, P. aeruginosa and E. faecalis; test: Atomic Force Microscopy of bacterial morphology; type: cell-based; conditions: twice the MIC, 1×10^9 cfu, FIG. 13
Protocol: (See FIG. 13) 1×10^9 cfu of E. Coli, P. aeruginosa and E. faecalis were incubated with twice the MIC of RNase 7. Ultra-pure water was used as a negative control. AFM imaging was performed with the Multimode AFM instrument (Veeco, Santa Barbara, Calif.) at Ohio State.

| Molecule | membrane permeabilization and death, E. coli (in words) (Escherichia coli (UTI89)) | membrane permeabilization and death, S. saprophyticus (in words) [1] | mean inhibitory concentration (MIC) [2] | cytotoxic properties [3] | mean inhibitory concentration (MIC) (uropathogenic E. coli) | hemolytic properties (human erythocytes) | morphological effect on bacteria (AFM) [4] |
| --- | --- | --- | --- | --- | --- | --- | --- |
| B1 | increased permeability; also recorded: improved activity compared to the full-length protein; also recorded: increased membrane permeabilization and subsequent death against both strains | increased permeability; also recorded: improved activity compared to full-length; also recorded: increased membrane permeabilization and subsequent death against both strains | – | – | – | – | – |
| B2 | – | – | 1.3 µM | no cytoxic or hemolytic properties | 2.5 µM | no cytoxic or hemolytic properties | direct bacteriocidal effects on multiple microbes |
